Laboratory results from patent CN111072775A (OLYMVAX BIOPHARMACEUTICALS INC; UNIV ARMY MEDICAL, dated 2020).
Residue numbers refer to the chain shown, from its start.

Target: T1, MntC蛋白 (锰离子转运蛋白C亚单位, 重组MntC蛋白) (金黄色葡萄球菌 (Staphylococcus aureus))
T1 construct: Recombinant MntC used as immunogen and as ELISA coating antigen; also called MntC重组蛋白; MntC蛋白标准品
T1 chain: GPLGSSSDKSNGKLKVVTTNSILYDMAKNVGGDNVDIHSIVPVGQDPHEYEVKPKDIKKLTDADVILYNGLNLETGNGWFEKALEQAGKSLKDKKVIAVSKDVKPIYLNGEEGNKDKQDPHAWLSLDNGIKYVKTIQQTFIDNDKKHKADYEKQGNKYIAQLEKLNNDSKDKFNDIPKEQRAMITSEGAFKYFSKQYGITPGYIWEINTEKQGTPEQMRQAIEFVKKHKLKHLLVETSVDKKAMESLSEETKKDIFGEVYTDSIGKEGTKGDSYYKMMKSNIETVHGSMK
Experiment: ELISA on MntC with HRP-labelled antibody

B1: HRP标记的抗体3F6 (antibody, V domains shown)
VH: VQLQQSGPSLVKPSQTLSLTCSVTGDSITNGYWNWIRKFPGNKLEYMGYISYSGTTYYNPSLKSRISITRDTSKNQYYLQLNSVTTEDTATYYCSRIRPYRHLGFDYWGQGTTVTVSS
VL: DIVMTQTPASLAVSLGQRATISCKASQSVDYGGDSYMNWYQQKPGQPPKLLIYAASNLESGIPARFSGSGSGTDFTLNIHPVEEEDGATYYCQQSNEDPWTFGGGTKLEIK
modifications: HRP label by the sodium periodate oxidation method; chain and site not stated
notes: also called HRP标记抗体 (3F6)
B1: binds.

B2: HRP标记的抗体3C10 (antibody, V domains shown)
VH: B1 VH with Q2K, Q5E
VL: B1 VL with T7S, P8T
modifications: HRP label by the sodium periodate oxidation method; chain and site not stated
notes: also called HRP标记抗体 (3C10); 酶结合物(抗体3C10)
B2: binds.
